Experimental data as given in paper PMC6255862, “A quaternary tetramer assembly inhibits the deubiquitinating activity of USP25” (Nature Communications, 2018).
“And” between values parts separate entries of the source, which are not always exact repeats. Equal entries are not always repeated. One block for each molecule: values may come before it.

How the values were obtained:
[1] = target: USP25CD ΔIL (USP25 catalytic domain construct with the IL-loop, Cys465 to Pro537, replaced by Gly-Ser-Gly) (human); assay: SEC; analytical gel filtration of all truncation constructs run in parallel under identical conditions, Superdex 16 column, 100 mM NaCl, 20 mM Tris-HCl pH 8.0, 1 mM β-mercaptoethanol; oligomer from elution time against expected molecular weight
[2] = target: USP25CD (human USP25 with the NTD and the CTD deleted) (human); assay: as above
USP25 Y454F (human) = USP25 Y454F (human) (UniProt Q9UHP3); assay: SEC; oligomer state of USP25 point mutants (Supplementary Figures 6 and 11, not shown); by the methods all USP25 constructs were loaded on a Superdex 16 column in 100 mM NaCl, 20 mM Tris-HCl pH 8.0, 1 mM β-mercaptoethanol and run on native PAGE
USP25 Y454E (human) = USP25 Y454E (human) (UniProt Q9UHP3); assay: as above
[3] = target: the molecule itself; assay: SEC; purification of USP25NCD: preparative Superdex 200 gel filtration, anion exchange of the two peak fractions, analytical gel filtration (Superdex 16) of the dimer and tetramer fractions; 100 mM NaCl, 20 mM Tris-HCl pH 8.0, 1 mM β-mercaptoethanol
[4] = target: the molecule itself; assay: SEC; analytical gel filtration of all truncation constructs run in parallel under identical conditions, Superdex 16 column, 100 mM NaCl, 20 mM Tris-HCl pH 8.0, 1 mM β-mercaptoethanol; oligomer from elution time against expected molecular weight
[5] = target: T1, USP25FL (full-length human USP25) (human), Q9UHP3; assay: as above; settings: remark: other sources report otherwise
T1 chain: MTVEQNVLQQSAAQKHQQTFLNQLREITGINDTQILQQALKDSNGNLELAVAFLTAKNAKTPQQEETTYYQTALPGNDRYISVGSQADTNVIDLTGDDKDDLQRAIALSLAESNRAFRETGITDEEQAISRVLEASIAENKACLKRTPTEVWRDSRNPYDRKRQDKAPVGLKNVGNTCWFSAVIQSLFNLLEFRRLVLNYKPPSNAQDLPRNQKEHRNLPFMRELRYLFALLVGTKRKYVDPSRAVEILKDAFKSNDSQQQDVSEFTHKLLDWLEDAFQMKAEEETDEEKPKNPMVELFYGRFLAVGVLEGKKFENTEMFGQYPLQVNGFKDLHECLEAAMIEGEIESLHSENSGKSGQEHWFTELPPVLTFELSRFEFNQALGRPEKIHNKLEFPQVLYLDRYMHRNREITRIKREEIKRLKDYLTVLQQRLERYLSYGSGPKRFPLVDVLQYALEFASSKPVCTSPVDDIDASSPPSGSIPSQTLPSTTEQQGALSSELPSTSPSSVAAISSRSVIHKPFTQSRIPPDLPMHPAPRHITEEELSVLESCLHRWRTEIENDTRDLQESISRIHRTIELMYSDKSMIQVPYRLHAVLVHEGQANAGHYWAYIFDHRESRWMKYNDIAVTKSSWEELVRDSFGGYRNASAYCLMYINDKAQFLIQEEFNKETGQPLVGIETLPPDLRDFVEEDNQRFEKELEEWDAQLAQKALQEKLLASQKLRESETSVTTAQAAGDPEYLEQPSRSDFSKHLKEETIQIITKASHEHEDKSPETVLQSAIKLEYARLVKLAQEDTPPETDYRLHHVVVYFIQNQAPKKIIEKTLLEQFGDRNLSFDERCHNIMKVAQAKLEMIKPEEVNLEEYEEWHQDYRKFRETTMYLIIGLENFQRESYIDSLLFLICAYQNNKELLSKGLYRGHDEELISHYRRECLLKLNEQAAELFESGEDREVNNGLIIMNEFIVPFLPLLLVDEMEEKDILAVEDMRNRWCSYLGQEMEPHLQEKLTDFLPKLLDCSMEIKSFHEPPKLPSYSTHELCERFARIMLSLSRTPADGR

stoichiometry N [1]: 2
Molecule: USP25CD ΔIL (USP25 catalytic domain construct with the IL-loop, Cys465 to Pro537, replaced by Gly-Ser-Gly) (domain or fragment)

stoichiometry N [2]: 4
Molecule: USP25CD (human USP25 with the NTD and the CTD deleted) (domain or fragment)

stoichiometry N (USP25 Y454F (human)): 4
Molecule: USP25 Y454F (from UniProt Q9UHP3 1-1055) (enzyme)

stoichiometry N (USP25 Y454E (human)): 2
Molecule: USP25 Y454E (from UniProt Q9UHP3 1-1055) (enzyme)

B1: USP25NCD (human USP25, N-terminal domain and USP-like catalytic domain, Gln18 to Glu714) (enzyme, UniProt Q9UHP3 18-714, looked up)
chain: QTFLNQLREITGINDTQILQQALKDSNGNLELAVAFLTAKNAKTPQQEETTYYQTALPGNDRYISVGSQADTNVIDLTGDDKDDLQRAIALSLAESNRAFRETGITDEEQAISRVLEASIAENKACLKRTPTEVWRDSRNPYDRKRQDKAPVGLKNVGNTCWFSAVIQSLFNLLEFRRLVLNYKPPSNAQDLPRNQKEHRNLPFMRELRYLFALLVGTKRKYVDPSRAVEILKDAFKSNDSQQQDVSEFTHKLLDWLEDAFQMKAEEETDEEKPKNPMVELFYGRFLAVGVLEGKKFENTEMFGQYPLQVNGFKDLHECLEAAMIEGEIESLHSENSGKSGQEHWFTELPPVLTFELSRFEFNQALGRPEKIHNKLEFPQVLYLDRYMHRNREITRIKREEIKRLKDYLTVLQQRLERYLSYGSGPKRFPLVDVLQYALEFASSKPVCTSPVDDIDASSPPSGSIPSQTLPSTTEQQGALSSELPSTSPSSVAAISSRSVIHKPFTQSRIPPDLPMHPAPRHITEEELSVLESCLHRWRTEIENDTRDLQESISRIHRTIELMYSDKSMIQVPYRLHAVLVHEGQANAGHYWAYIFDHRESRWMKYNDIAVTKSSWEELVRDSFGGYRNASAYCLMYINDKAQFLIQEEFNKETGQPLVGIETLPPDLRDFVEEDNQRFEKELEEWDAQLAQKALQE
notes: USP25, human, residues 18-714 of the 1055-residue protein (Met1 to Arg1055); A His tag ahead of Smt3 is surmised from the Ni2+ purification; also called USP25NCD tetramer; USP25NCD dimer; not shown: Smt3, N-terminal, cleaved
stoichiometry N [3]: 2 and 4

B2: USP25FL ΔIL (full-length USP25 with the IL-loop, Cys465 to Pro537, replaced by Gly-Ser-Gly) (enzyme, human)
chain: MTVEQNVLQQSAAQKHQQTFLNQLREITGINDTQILQQALKDSNGNLELAVAFLTAKNAKTPQQEETTYYQTALPGNDRYISVGSQADTNVIDLTGDDKDDLQRAIALSLAESNRAFRETGITDEEQAISRVLEASIAENKACLKRTPTEVWRDSRNPYDRKRQDKAPVGLKNVGNTCWFSAVIQSLFNLLEFRRLVLNYKPPSNAQDLPRNQKEHRNLPFMRELRYLFALLVGTKRKYVDPSRAVEILKDAFKSNDSQQQDVSEFTHKLLDWLEDAFQMKAEEETDEEKPKNPMVELFYGRFLAVGVLEGKKFENTEMFGQYPLQVNGFKDLHECLEAAMIEGEIESLHSENSGKSGQEHWFTELPPVLTFELSRFEFNQALGRPEKIHNKLEFPQVLYLDRYMHRNREITRIKREEIKRLKDYLTVLQQRLERYLSYGSGPKRFPLVDVLQYALEFASSKPVGSGRHITEEELSVLESCLHRWRTEIENDTRDLQESISRIHRTIELMYSDKSMIQVPYRLHAVLVHEGQANAGHYWAYIFDHRESRWMKYNDIAVTKSSWEELVRDSFGGYRNASAYCLMYINDKAQFLIQEEFNKETGQPLVGIETLPPDLRDFVEEDNQRFEKELEEWDAQLAQKALQEKLLASQKLRESETSVTTAQAAGDPEYLEQPSRSDFSKHLKEETIQIITKASHEHEDKSPETVLQSAIKLEYARLVKLAQEDTPPETDYRLHHVVVYFIQNQAPKKIIEKTLLEQFGDRNLSFDERCHNIMKVAQAKLEMIKPEEVNLEEYEEWHQDYRKFRETTMYLIIGLENFQRESYIDSLLFLICAYQNNKELLSKGLYRGHDEELISHYRRECLLKLNEQAAELFESGEDREVNNGLIIMNEFIVPFLPLLLVDEMEEKDILAVEDMRNRWCSYLGQEMEPHLQEKLTDFLPKLLDCSMEIKSFHEPPKLPSYSTHELCERFARIMLSLSRTPADGR
notes: USP25, human, from Met1 to the residue before the deletion (deletion from Cys465 to Pro537); three-amino-acid linker Gly-Ser-Gly in place of the deleted stretch; USP25, human, from the residue after the deletion to Arg1055; also called ΔIL USP25FL; not shown: Smt3, N-terminal, cleaved
stoichiometry N [4]: 2

stoichiometry N [5]: 4
B3: USP25FL (full-length human USP25), Q9UHP3 1-1055 (enzyme)
chain: MTVEQNVLQQSAAQKHQQTFLNQLREITGINDTQILQQALKDSNGNLELAVAFLTAKNAKTPQQEETTYYQTALPGNDRYISVGSQADTNVIDLTGDDKDDLQRAIALSLAESNRAFRETGITDEEQAISRVLEASIAENKACLKRTPTEVWRDSRNPYDRKRQDKAPVGLKNVGNTCWFSAVIQSLFNLLEFRRLVLNYKPPSNAQDLPRNQKEHRNLPFMRELRYLFALLVGTKRKYVDPSRAVEILKDAFKSNDSQQQDVSEFTHKLLDWLEDAFQMKAEEETDEEKPKNPMVELFYGRFLAVGVLEGKKFENTEMFGQYPLQVNGFKDLHECLEAAMIEGEIESLHSENSGKSGQEHWFTELPPVLTFELSRFEFNQALGRPEKIHNKLEFPQVLYLDRYMHRNREITRIKREEIKRLKDYLTVLQQRLERYLSYGSGPKRFPLVDVLQYALEFASSKPVCTSPVDDIDASSPPSGSIPSQTLPSTTEQQGALSSELPSTSPSSVAAISSRSVIHKPFTQSRIPPDLPMHPAPRHITEEELSVLESCLHRWRTEIENDTRDLQESISRIHRTIELMYSDKSMIQVPYRLHAVLVHEGQANAGHYWAYIFDHRESRWMKYNDIAVTKSSWEELVRDSFGGYRNASAYCLMYINDKAQFLIQEEFNKETGQPLVGIETLPPDLRDFVEEDNQRFEKELEEWDAQLAQKALQEKLLASQKLRESETSVTTAQAAGDPEYLEQPSRSDFSKHLKEETIQIITKASHEHEDKSPETVLQSAIKLEYARLVKLAQEDTPPETDYRLHHVVVYFIQNQAPKKIIEKTLLEQFGDRNLSFDERCHNIMKVAQAKLEMIKPEEVNLEEYEEWHQDYRKFRETTMYLIIGLENFQRESYIDSLLFLICAYQNNKELLSKGLYRGHDEELISHYRRECLLKLNEQAAELFESGEDREVNNGLIIMNEFIVPFLPLLLVDEMEEKDILAVEDMRNRWCSYLGQEMEPHLQEKLTDFLPKLLDCSMEIKSFHEPPKLPSYSTHELCERFARIMLSLSRTPADGR

B4: USP25NCD ΔIL (USP25 18-714 with the IL-loop, Cys465 to Pro537, replaced by Gly-Ser-Gly) (enzyme, human)
chain: QTFLNQLREITGINDTQILQQALKDSNGNLELAVAFLTAKNAKTPQQEETTYYQTALPGNDRYISVGSQADTNVIDLTGDDKDDLQRAIALSLAESNRAFRETGITDEEQAISRVLEASIAENKACLKRTPTEVWRDSRNPYDRKRQDKAPVGLKNVGNTCWFSAVIQSLFNLLEFRRLVLNYKPPSNAQDLPRNQKEHRNLPFMRELRYLFALLVGTKRKYVDPSRAVEILKDAFKSNDSQQQDVSEFTHKLLDWLEDAFQMKAEEETDEEKPKNPMVELFYGRFLAVGVLEGKKFENTEMFGQYPLQVNGFKDLHECLEAAMIEGEIESLHSENSGKSGQEHWFTELPPVLTFELSRFEFNQALGRPEKIHNKLEFPQVLYLDRYMHRNREITRIKREEIKRLKDYLTVLQQRLERYLSYGSGPKRFPLVDVLQYALEFASSKPVGSGRHITEEELSVLESCLHRWRTEIENDTRDLQESISRIHRTIELMYSDKSMIQVPYRLHAVLVHEGQANAGHYWAYIFDHRESRWMKYNDIAVTKSSWEELVRDSFGGYRNASAYCLMYINDKAQFLIQEEFNKETGQPLVGIETLPPDLRDFVEEDNQRFEKELEEWDAQLAQKALQE
notes: USP25, human, from Gln18 to the residue before the deletion (deletion from Cys465 to Pro537); three-amino-acid linker Gly-Ser-Gly in place of the deleted stretch; USP25, human, from the residue after the deletion to Glu714; also called ΔIL USP25NCD; USP25NCD ∆IL; not shown: Smt3, N-terminal, cleaved
stoichiometry N [4]: 2
